Source: patent publication US20210324108A1

Target: human 4-1BB on Jurkat-hu4-1BB-NFκB-luc2 reporter cells (human) (UniProt Q07011)
Assay: cell-based or functional assay

Chain of human 4-1BB on Jurkat-hu4-1BB-NFκB-luc2 reporter cells (human) (Q07011 24-255 limits assumed): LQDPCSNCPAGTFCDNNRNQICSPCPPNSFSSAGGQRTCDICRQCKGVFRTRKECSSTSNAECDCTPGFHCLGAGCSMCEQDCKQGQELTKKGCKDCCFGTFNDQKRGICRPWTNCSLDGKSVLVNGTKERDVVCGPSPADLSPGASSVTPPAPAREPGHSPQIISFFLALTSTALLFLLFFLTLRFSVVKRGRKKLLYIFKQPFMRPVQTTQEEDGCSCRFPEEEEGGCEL

Work on “2+1 bispecific agonistic anti-4-1BB (20H4.9) x anti-FAP (4B9) huIgG1 P329GLALA antibody (bispecific antibody)” yielded an EC50 of NFκB-luciferase activation in Jurkat-hu4-1BB-NFκB-luc2 cells with NIH/3T3-huFAP clone 19 of 0.02 nM and an area under the curve (AUC) of NFκB-luciferase activation in Jurkat-hu4-1BB-NFκB-luc2 cells with NIH/3T3-huFAP clone 19 of 53500.
